Laboratory results as given in patent US20180016581.
Where two headings read alike, the source gives them in different places.

How the values were obtained:
[1] = biological target: T1, GDF11, mature (Homo sapiens) (UniProt O95390); settings: TrpdU at each W (n in listing)
T1 sequence: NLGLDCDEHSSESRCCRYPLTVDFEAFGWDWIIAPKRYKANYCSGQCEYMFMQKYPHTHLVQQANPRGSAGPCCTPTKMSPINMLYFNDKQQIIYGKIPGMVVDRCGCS

[2] = biological target: GDF8 (myostatin), mature (Homo sapiens) (UniProt O14793); settings: TrpdU at each W (n in listing)
GDF8 (myostatin), mature (Homo sapiens), sequence (O14793 267-375): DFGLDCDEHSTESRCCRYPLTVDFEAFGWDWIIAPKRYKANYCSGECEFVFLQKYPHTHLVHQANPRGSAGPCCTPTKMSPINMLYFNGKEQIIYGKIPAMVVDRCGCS

Row | Sequence | Kd ([1]; with Z-block) [nM] | Kd ([2]; with Z-block) [nM] | Kd ([1]; 0.1 uM Z-block, low binding plateau) [nM] | Kd ([2]; 0.1 uM Z-block, 1.32E-10 M in p223) [nM]
1 | CTCTGAACTTCTAATGTCTCTTGCATTTTATCGCATTGATTTCTCCAACA [14583-19_3] | 0.42 | 1.16 | – | –
2 | CTCTGATACGGCCTTAGTGTTAGAGTCCTTTATGAGTCTAGACCACAACA [14583-49_3] | – | – | 1.11 | 0.13
3 | TGTTAGAGTCCTTTATGAGTCTAG [14583-49_29] | – | 0.228 | – | –
